Conditions in all cases: both partners purified
One assay deals with T1, His10-BRIL (Escherichia coli (engineered cytochrome …, stabilised)).
T1 construct: BRIL, an engineered variant of apocytochrome b562; Immobilised by its N-terminal His10 tag for SPR; also called wt BRIL; source: E. coli BL21 (DE3), purified (Ni-NTA); not shown: His10, N-terminal, kept
Briefly: SPR; His10-BRIL immobilised on a nitrilotriacetic acid sensor chip via the N-terminal His10 tag; 2-fold dilution series of sABs at 30 μl/min; 20 °C; BIACORE 3000; 1:1 interaction model. On the technique in general: In SPR one partner is held on a chip, and binding of the other changes the refractive index at the surface.

The target of assay [1] is T2, BRIL-AAA-KcsA (construct 2) (Escherichia coli (engineered cytochrome …, chimera)).
T2 construct: BRIL, an engineered variant of apocytochrome b562, in place of the N-terminal helix of KcsA; helical linker; potassium channel KcsA; the N-terminal helix (residues 1-23) replaced by BRIL and linker; also called three residues (-AAA-) linker construct; source: E. coli BL21(DE3)plysS, purified (Talon, SEC) in DDM
Nature of the assay: SEC; analytical SEC (aSEC): BRIL-fused targets (in detergent, nanodiscs or amphipols) mixed with 1.2–1.5-fold molar excess of sAB, 30 min on ice; Superdex 200 Increase or Superose 6 Increase; retention volume and gel electrophoresis. A general note: Size exclusion chromatography separates by hydrodynamic size, large species first.

Assay [2] concerns the target T3, BRIL-AAAA-KcsA (construct 3, 1 turn) (Escherichia coli (engineered cytochrome …, chimera)).
T3 construct: BRIL, an engineered variant of apocytochrome b562, in place of the N-terminal helix of KcsA; helical linker, 1 turn; potassium channel KcsA; the N-terminal helix (residues 1-23) replaced by BRIL and linker; also called four residues or 1 turn (-AAAA-) linker construct; source: E. coli BL21(DE3)plysS, purified (Talon, SEC) in DDM
The description is as above.

Assay [3] concerns the target T4, BRIL-AAAAA-KcsA (construct 4) (Escherichia coli (engineered cytochrome …, chimera)).
T4 construct: BRIL, an engineered variant of apocytochrome b562, in place of the N-terminal helix of KcsA; helical linker; potassium channel KcsA; the N-terminal helix (residues 1-23) replaced by BRIL and linker; also called five residues (-AAAAA-) linker construct; source: E. coli BL21(DE3)plysS, purified (Talon, SEC) in DDM
The assay is described as above.

Assay [4] addresses T5, BRIL-AARAAA-KcsA (construct 5) (Escherichia coli (engineered cytochrome …, chimera)).
T5 construct: BRIL, an engineered variant of apocytochrome b562, in place of the N-terminal helix of KcsA; helical linker; potassium channel KcsA; the N-terminal helix (residues 1-23) replaced by BRIL and linker; also called six residues (-AARAAA-) linker construct; source: E. coli BL21(DE3)plysS, purified (Talon, SEC) in DDM
The description is as above.

In assay [5] the target is T6, BRIL-AARAAAA-KcsA (construct 6) (Escherichia coli (engineered cytochrome …, chimera)).
T6 construct: BRIL, an engineered variant of apocytochrome b562, in place of the N-terminal helix of KcsA; helical linker; potassium channel KcsA; the N-terminal helix (residues 1-23) replaced by BRIL and linker; also called seven residues (-AARAAAA-) linker construct; source: E. coli BL21(DE3)plysS, purified (Talon, SEC) in DDM
The description is as above.

The target of assay [6] is T7, BRIL-2turn-KcsA (construct 7) (Escherichia coli (engineered cytochrome …, chimera)).
T7 construct: BRIL, an engineered variant of apocytochrome b562, in place of the N-terminal helix of KcsA; helical linker, 2 turn; potassium channel KcsA; the N-terminal helix (residues 1-23) replaced by BRIL and linker; also called construct with 2-turn linker; source: E. coli BL21(DE3)plysS, purified (Talon, SEC) in DDM
The description is as above.

Assay [7] deals with T8, BRIL-3turn-KcsA (construct 8) (Escherichia coli (engineered cytochrome …, chimera)).
T8 construct: BRIL, an engineered variant of apocytochrome b562, in place of the N-terminal helix of KcsA; helical linker, 3 turn; potassium channel KcsA; the N-terminal helix (residues 1-23) replaced by BRIL and linker; source: E. coli BL21(DE3)plysS, purified (Talon, SEC) in DDM
Described as above.

Changes are numbered by the printed parent chain.

B1: sAB24 (Fab, V domains shown)
VH: EVQLVESGGGLVQPGGSLRLSCAASGFNFSSSSIHWVRQAPGKGLEWVAYISSSSGSTSYADSVKGRFTISADTSKNTAYLQMNSLRAEDTAVYYCARWGYWPGEPWWKAFDYWGQGTLVTVSS
VL: DIQMTQSPSSLSASVGDRVTITCRASQSVSSAVAWYQQKPGKAPKLLIYSASSLYSGVPSRFSGSRSGTDFTLTISSLQPEDFATYYCQQYLYYSLVTFGQGTKVEIK
notes: as the heavy chain of m3 (BAG2), with CDR-H1 32-37 FSSSSI in place of VVDFSL; as the light chain of m3 (BAG2); Parent of BAG2; also called wt sAB24; wt sAB; source: E. coli BL21(gold), purified
In the case of B1, in the assay with His10-BRIL, the Kd (as a rule, the concentration at which binding is half-saturated) is approximately 23 nM.

B2: BAG2 F35A (Fab, V domains shown)
VH: B1 VH with F29V, S30V, S31D, S32A, I34L
VL: B1 VL
notes: as the heavy chain of m3 (BAG2) with the stated change in CDR-H1; as the light chain of m3 (BAG2)
For B2, binding with His10-BRIL was characterised by a dissociation constant (Kd) of 7.6 nM.

B3: sAB BAG2 (Fab, V domains shown)
VH: B1 VH with F29V, S30V, S31D, S32F, I34L
VL: B1 VL
notes: Fab heavy chain; CDR-H1 residues 32-37 are VVDFSL; Fab light chain; humanized Fab scaffold of phage library E; source: E. coli BL21(gold), purified
In the assay with His10-BRIL, B3 showed a Kd of approximately 0.3 nM. Besides, the “stoichiometry N” value in assay [1], in assay [2], in assay [3], in assay [4], in assay [5] and in assay [6] was 4 in each case. In assay [7], the stoichiometry N (in general, the number of molecules, sites or subunits per partner or assembly) is 4.

B4: BAG2 S36A (Fab, V domains shown)
VH: B1 VH with F29V, S30V, S31D, S32F, S33A, I34L
VL: B1 VL
notes: as for B2
In turn, B4 came in with an equilibrium dissociation constant (Kd) with His10-BRIL of 5.3 nM.

The values are drawn from article PMC7101349, “Synthetic antibodies against BRIL as universal fiducial marks for single−particle cryoEM structure determination of membrane proteins” (Nature Communications, 2020).
